Measured values published in the supplement of paper PMC12783771.
± gives the standard deviation of the averaged measurements.

B1: library; a variant is named by its letters at X, in order (parent)
chain: MNIQIGELAKRTACPVVTIRFYEQEGLLPPPGRSRGNFRLYGEEHVERLQFIRHCRSLDMPLSDVRTLLSYRKRPDQDCGEVXMLLDEHIRQVESRIGALLELKHHLVELREACSGARPAQSCGILQXLSXCVCXTRGTTAHXSD

What was measured:
[1] = variants of: B1; experiment: sfGFP reporter fluorescence (15 h) (µM FITC); higher = higher leak; settings: library round: Round 2; ligand: none
Experimental: (§1)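 Cell-free biosensing: 1 µL Echo-assembled CFE reactions with linear PbrR variant templates (5 nM) and pPbrR-sfGFP reporter, with 1 µM Pb, 30 µM Zn or no ligand; endpoint sfGFP fluorescence after 15 h at 30 °C calibrated as µM FITC. Round 2 ML-predicted PbrR mutants; up to 3 biological replicates.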

[2] = variants of: B1; experiment: sfGFP reporter fluorescence (15 h) (µM FITC); higher = stronger transcriptional activation; settings: library round: Round 2
Experimental: as §1

NMDAA K104R L107C
sfGFP reporter fluorescence [1]: 2.28 ± 0.3 | sfGFP reporter fluorescence ([2]; ligand: 1 µM Pb): 3.13 ± 0.41 | sfGFP reporter fluorescence ([2]; ligand: 30 µM Zn): 3.83 ± 0.4

NTDDP P61N D64K L107C
sfGFP reporter fluorescence [1]: 2.26 ± 0.67 | sfGFP reporter fluorescence ([2]; ligand: 1 µM Pb): 2.58 ± 0.67 | sfGFP reporter fluorescence ([2]; ligand: 30 µM Zn): 3.04 ± 0.32

NMDDP L85I K104V
sfGFP reporter fluorescence [1]: 0.131 ± 0.013 | sfGFP reporter fluorescence ([2]; ligand: 1 µM Pb): 0.417 ± 0.024 | sfGFP reporter fluorescence ([2]; ligand: 30 µM Zn): 1.99 ± 1.7

NMDAP L85I
sfGFP reporter fluorescence [1]: 0.11 ± 0.012 | sfGFP reporter fluorescence ([2]; ligand: 1 µM Pb): 0.278 ± 0.017 | sfGFP reporter fluorescence ([2]; ligand: 30 µM Zn): 3.11 ± 0.44

NMDDP I3M P61N K104V L107C
sfGFP reporter fluorescence [1]: 0.501 ± 0.013 | sfGFP reporter fluorescence ([2]; ligand: 1 µM Pb): 0.989 ± 0.041 | sfGFP reporter fluorescence ([2]; ligand: 30 µM Zn): 2.79 ± 0.18

NMDDP L107C E109V
sfGFP reporter fluorescence [1]: 2.96 ± 0.17 | sfGFP reporter fluorescence ([2]; ligand: 1 µM Pb): 3.18 ± 0.55 | sfGFP reporter fluorescence ([2]; ligand: 30 µM Zn): 3.51 ± 0.14

NPDAP I90L
sfGFP reporter fluorescence [1]: 0.0467 ± 0.0027 | sfGFP reporter fluorescence ([2]; ligand: 1 µM Pb): 0.04301 ± 0.00034 | sfGFP reporter fluorescence ([2]; ligand: 30 µM Zn): 0.0482 ± 0.0039

NIDDP M60L P61N K104V L107C
sfGFP reporter fluorescence [1]: 0.315 ± 0.042 | sfGFP reporter fluorescence ([2]; ligand: 1 µM Pb): 1.19 ± 0.096 | sfGFP reporter fluorescence ([2]; ligand: 30 µM Zn): 2.16 ± 0.42

NSAAP
sfGFP reporter fluorescence [1]: 0.0758 ± 0.0055 | sfGFP reporter fluorescence ([2]; ligand: 1 µM Pb): 0.162 ± 0.0077 | sfGFP reporter fluorescence ([2]; ligand: 30 µM Zn): 1.67 ± 0.15

NMDDP R96G K104V
sfGFP reporter fluorescence [1]: 0.0669 ± 0.0034 | sfGFP reporter fluorescence ([2]; ligand: 1 µM Pb): 0.0841 ± 0.003 | sfGFP reporter fluorescence ([2]; ligand: 30 µM Zn): 0.58 ± 0.055

NMDAK L107C
sfGFP reporter fluorescence [1]: 2.86 ± 0.17 | sfGFP reporter fluorescence ([2]; ligand: 1 µM Pb): 3.46 ± 0.15 | sfGFP reporter fluorescence ([2]; ligand: 30 µM Zn): 3.68 ± 0.19

NIEDP C134E
sfGFP reporter fluorescence [1]: 0.194 ± 0.028 | sfGFP reporter fluorescence ([2]; ligand: 1 µM Pb): 0.316 ± 0.0082 | sfGFP reporter fluorescence ([2]; ligand: 30 µM Zn): 4.73 ± 3.2

TIDSP L107C
sfGFP reporter fluorescence [1]: 0.384 ± 0.026 | sfGFP reporter fluorescence ([2]; ligand: 1 µM Pb): 1.42 ± 0.32 | sfGFP reporter fluorescence ([2]; ligand: 30 µM Zn): 3.28 ± 0.26

NSEPP
sfGFP reporter fluorescence [1]: 0.0629 ± 0.0028 | sfGFP reporter fluorescence ([2]; ligand: 1 µM Pb): 0.145 ± 0.014 | sfGFP reporter fluorescence ([2]; ligand: 30 µM Zn): 1.79 ± 0.34

NIDDP P61N C134E
sfGFP reporter fluorescence [1]: 0.308 ± 0.021 | sfGFP reporter fluorescence ([2]; ligand: 1 µM Pb): 0.544 ± 0.11 | sfGFP reporter fluorescence ([2]; ligand: 30 µM Zn): 3.19 ± 0.055

NIEDP L107C
sfGFP reporter fluorescence [1]: 1.74 ± 0.23 | sfGFP reporter fluorescence ([2]; ligand: 1 µM Pb): 2.69 ± 0.47 | sfGFP reporter fluorescence ([2]; ligand: 30 µM Zn): 3.33 ± 0.68

NISDP L107C
sfGFP reporter fluorescence [1]: 2.65 ± 0.43 | sfGFP reporter fluorescence ([2]; ligand: 1 µM Pb): 3.61 ± 0.5 | sfGFP reporter fluorescence ([2]; ligand: 30 µM Zn): 3.33 ± 0.18

NTDAP L107C
sfGFP reporter fluorescence [1]: 0.819 ± 0.064 | sfGFP reporter fluorescence ([2]; ligand: 1 µM Pb): 1.7 ± 0.12 | sfGFP reporter fluorescence ([2]; ligand: 30 µM Zn): 3.23 ± 0.041

NMDAP L101V K104V
sfGFP reporter fluorescence [1]: 0.176 ± 0.024 | sfGFP reporter fluorescence ([2]; ligand: 1 µM Pb): 0.55 ± 0.022 | sfGFP reporter fluorescence ([2]; ligand: 30 µM Zn): 2.78 ± 0.34

NMDDA M60L
sfGFP reporter fluorescence [1]: 0.805 ± 0.062 | sfGFP reporter fluorescence ([2]; ligand: 1 µM Pb): 1.88 ± 0.22 | sfGFP reporter fluorescence ([2]; ligand: 30 µM Zn): 3.33 ± 0.49

TIDDP P61N D64K
sfGFP reporter fluorescence [1]: 0.106 ± 0.013 | sfGFP reporter fluorescence ([2]; ligand: 1 µM Pb): 0.617 ± 0.019 | sfGFP reporter fluorescence ([2]; ligand: 30 µM Zn): 1.75 ± 0.14

NIDSP M60L
sfGFP reporter fluorescence [1]: 0.251 ± 0.048 | sfGFP reporter fluorescence ([2]; ligand: 1 µM Pb): 0.739 ± 0.14 | sfGFP reporter fluorescence ([2]; ligand: 30 µM Zn): 2.25 ± 0.49

NMDDP M60L P61N K104V L107C
sfGFP reporter fluorescence [1]: 0.759 ± 0.1 | sfGFP reporter fluorescence ([2]; ligand: 1 µM Pb): 1.83 ± 0.19 | sfGFP reporter fluorescence ([2]; ligand: 30 µM Zn): 3.54 ± 0.46

NMDDP K104V L107S
sfGFP reporter fluorescence [1]: 0.0726 ± 0.0093 | sfGFP reporter fluorescence ([2]; ligand: 1 µM Pb): 0.159 ± 0.014 | sfGFP reporter fluorescence ([2]; ligand: 30 µM Zn): 1.27 ± 0.068

NTCDP M60L
sfGFP reporter fluorescence [1]: 0.222 ± 0.016 | sfGFP reporter fluorescence ([2]; ligand: 1 µM Pb): 0.784 ± 0.021 | sfGFP reporter fluorescence ([2]; ligand: 30 µM Zn): 2.43 ± 0.27

NMDAP L107C
sfGFP reporter fluorescence [1]: 2.23 ± 0.28 | sfGFP reporter fluorescence ([2]; ligand: 1 µM Pb): 3.21 ± 0.21 | sfGFP reporter fluorescence ([2]; ligand: 30 µM Zn): 3.29 ± 0.5

NMDDP M60L D64T L107C
sfGFP reporter fluorescence [1]: 3.16 ± 0.21 | sfGFP reporter fluorescence ([2]; ligand: 1 µM Pb): 2.93 ± 0.29 | sfGFP reporter fluorescence ([2]; ligand: 30 µM Zn): 4.14 ± 0.31

NIDDP P61N D64K K104V L107A
sfGFP reporter fluorescence [1]: 0.0923 ± 0.0059 | sfGFP reporter fluorescence ([2]; ligand: 1 µM Pb): 0.215 ± 0.018 | sfGFP reporter fluorescence ([2]; ligand: 30 µM Zn): 1.34 ± 0.1

NTDAP M60L P61N D64K
sfGFP reporter fluorescence [1]: 0.878 ± 0.074 | sfGFP reporter fluorescence ([2]; ligand: 1 µM Pb): 2.33 ± 0.17 | sfGFP reporter fluorescence ([2]; ligand: 30 µM Zn): 3.33 ± 0.36

NLDDP G124A L129A
sfGFP reporter fluorescence [1]: 0.0419 ± 0.0017 | sfGFP reporter fluorescence ([2]; ligand: 1 µM Pb): 0.0398 ± 0.0017 | sfGFP reporter fluorescence ([2]; ligand: 30 µM Zn): 0.0426 ± 0.0023
